Like-named read-outs stand apart in the source and are kept apart here. Blank lines part the entries; values can stand above or below the binder they belong to. Numbered stars: 1 amine (or outer) side, 2 acyl side, 3 side chain; on linkers, the order of the positions; unused ones are H or OH. Bridge positions count the residues as written; N and C are the ends. Square brackets hold non-standard residues; d marks the D form. Ends that are not written are not given here. Tyr(2-NO2) = 2-nitro-Tyr, O=C([C@H](Cc1ccc(O[*:3])cc1[N+](=O)[O-])N[*:1])[*:2]; Phe(4-NO2) = N[C@@H](Cc1ccc([N+](=O)[O-])cc1)C(=O)O; Phe(F5) = N[C@@H](Cc1c(F)c(F)c(F)c(F)c1F)C(=O)O; Phe(4-NH2) = Nc1ccc(C[C@H](N)C(=O)O)cc1; Phe(4-F) = N[C@@H](Cc1ccc(F)cc1)C(=O)O; Phe(2-Me) = Cc1ccccc1C[C@H](N)C(=O)O; Pen = CC(C)(S)[C@H](N)C(=O)O; Sar = CNCC(=O)O
Columns and labels:
[1] = biological target: T1, soluble human FcRn (shFcRn) (human, UniProt P55899 24-297; P61769 21-119); assay: IgG competition ELISA
T1 construct: Biotinylated for the ELISA, amine-coupled to a CM5 chip for SPR; also called biotinylated shFcRn
Experimental: (§1) The wells were coated with 100 μl/well of 1 μg/ml biotinylated-shFcRn in Buffer A. The plate was sealed and incubated at 37° C. for 2 hours. Afterwards, the plate was washed with 200 μl/well of Buffer B (Buffer B: 100 mM MES pH 6, 150 mM NaCl, 0.5% BSA IgG-free (Jackson ImmunoResearch, West Grove, Pa.), 0.05% Tween-20). […] To allow for mixing, the plate was rocked for 2 minutes, sealed and incubated at 37° C. for 2 hours. […] The plate was covered, incubated for 30 minutes at room temperature and washed 4 times with 200 μl/well of ice-cold buffer B. SureBlue TMB substrate solution (100 μl/well, KPL, Gaithersburg, Md.) was added and the plate was allowed to incubate at room temperature until color developed, which took 5 to 10 minutes. Once color developed, 100 μl/well of TMB stop solution (KPL, Gaithersburg, Md.) was added and the absorbance was measured at 450 nm. The data was plotted as absorbance vs. peptide concentration to derive the inhibitory concentration 50% (IC₅₀) values.

[2] = biological target: T1, soluble human FcRn (shFcRn); assay: SPR pH 6; Peptide No. 88: Pen, 2-MePhe for Phe (QRF-Pen-TGH-(2-MePhe)-…)
Experimental: (§2) The following steps were performed to cross-link soluble human or cynomolgus FcRn to the dextran surface of a CM5 sensor chip (Biacore AB, Uppsala, Sweden) by an amine coupling reaction involving 1-ethyl-(3-dimethylaminopropyl)-carbodiimide hydrochloride (EDC) (Biacore AB, Uppsala, Sweden) and N-hydroxysuccinimide (NHS) (Biacore AB, Uppsala, Sweden) as recommended by Biacore (BIAapplications Handbook, version AB, section 4.2, Biacore AB, Uppsala, Sweden). […] Residual sites on the FcRn flow cell were blocked with 1 M ethanolamine hydrochloride pH 8.5 (Biacore AB, Uppsala, Sweden). A control flow cell was blocked with ethanolamine for reference subtraction. For analysis of the monomeric peptides, FcRn was coated to a final density of 4000-5000 response units (RU). For analysis of the peptide dimers, FcRn was coated to a density of 2000-2500 RU. All SPR measurements were performed using a BIACORE 3000 Instrument (Biacore AB Uppsala, Sweden). For measurements done at either pH 6 or pH 7.4, experiments were performed in 50 mM phosphate, 100 mM sodium chloride, 0.01% surfactant P20 (Biacore AB, Uppsala, Sweden).
(§3) Ten, 2-fold dilutions of the peptide were injected over the FcRn-CM5 chip at a rate of 20 μl/min for 2 min. The peptide was dissociated from the chip for 2.5 minutes with buffer. […] Sensorgrams were generated and analyzed using BiaEval software version 3.1 (Biacore AB, Uppsala, Sweden). […]

[3] = biological target: T1, soluble human FcRn (shFcRn); assay: IgG competition ELISA; remark: listed apart in the source
Experimental: as §1

[4] = biological target: T1, soluble human FcRn (shFcRn); assay: SPR pH 6; 4-amino-Phe in place of Tyr; Pen backbone
Experimental: as §2, §3

[5] = biological target: T1, soluble human FcRn (shFcRn); assay: SPR pH 6
Experimental: as §2
(§4) Ten, 2-fold dilutions of the peptide were injected over the FcRn-CM5 chip at a rate of 20 μl/min for 2 min. The peptide was dissociated from the chip for 2.5 minutes with buffer. Any remaining peptide was removed from the chip with a 30 second injection of HBS-P buffer (Biacore AB, Uppsala, Sweden) at a rate of 30 μl/min. Sensorgrams were generated and analyzed using BiaEval software version 3.1 (Biacore AB, Uppsala, Sweden). The equilibrium RU observed for each injection was plotted against concentration. The equilibrium KD values were derived by analysis of the plots using the steady state affinity model included in the BiaEval software.

[6] = biological target: T1, soluble human FcRn (shFcRn); assay: SPR pH 7.4
Experimental: as §2, §3

[7] = biological target: T1, soluble human FcRn (shFcRn); assay: IgG competition ELISA; remark: listed apart in the source
Experimental: as §1

[8] = biological target: T1, soluble human FcRn (shFcRn); assay: SPR pH 6; Peptide No. 189: Pen, lower-case a, Sar (QRF-Pen-TGHF-a-Sar-LYPCNGP)
Experimental: as §2, §3

[9] = biological target: T1, soluble human FcRn (shFcRn); assay: SPR pH 7.4; remark: listed apart in the source
Experimental: as §2, §3

[10] = biological target: T1, soluble human FcRn (shFcRn); assay: SPR pH 6; remark: listed apart in the source
Experimental: as §2, §4

[11] = biological target: T1, soluble human FcRn (shFcRn); assay: SPR pH 7.4; remark: listed apart in the source
Experimental: as §2, §3

[12] = biological target: T1, soluble human FcRn (shFcRn); assay: SPR pH 6; pentafluoroPhe in place of Tyr; Pen backbone
Experimental: as §2, §3

[13] = biological target: T1, soluble human FcRn (shFcRn); assay: SPR pH 6; 4-nitro-Phe in place of Tyr; Pen backbone
Experimental: as §2, §3

[14] = biological target: T1, soluble human FcRn (shFcRn); assay: SPR pH 6; Peptide No. 87: Pen, 2-nitro-Tyr for Tyr (QRF-Pen-TGHFGGL-(2-nitro-Tyr)-PCNGP)
Experimental: as §2, §3

[15] = biological target: T1, soluble human FcRn (shFcRn); assay: SPR pH 6; Peptide No. 94: Pen, PheNHAc for Phe (QRF-Pen-TGH-(PheNHAc)-…)
Experimental: as §2, §3

IC50 [1]: 1 µM
Kd [2]: 0.2 µM
B1: Peptide No. 88 (peptide)
peptide: QRF[Pen]TGH[Phe(2-Me)]GGLYPCNGP-NH2
modifications: disulfide 4-14; N-terminus assumed
SMILES: Cc1ccccc1C[C@@H]1NC(=O)[C@H](Cc2c[nH]cn2)NC(=O)CNC(=O)[C@H]([C@@H](C)O)NC(=O)[C@@H](NC(=O)[C@H](Cc2ccccc2)NC(=O)[C@H](CCCNC(=N)N)NC(=O)[C@@H](N)CCC(N)=O)C(C)(C)SSC[C@@H](C(=O)N[C@@H](CC(N)=O)C(=O)NCC(=O)N2CCC[C@H]2C(N)=O)NC(=O)[C@@H]2CCCN2C(=O)[C@H](Cc2ccc(O)cc2)NC(=O)[C@H](CC(C)C)NC(=O)CNC(=O)CNC1=O

IC50 [3]: 110 µM
Kd [4]: 34 µM
B2: Peptide No. 63 (peptide)
peptide: QRF[Pen]TGHFGGL[Phe(4-NH2)]PCNGP-NH2
modifications: disulfide 4-14; N-terminus assumed
SMILES: CC(C)C[C@@H]1NC(=O)CNC(=O)CNC(=O)[C@H](Cc2ccccc2)NC(=O)[C@H](Cc2c[nH]cn2)NC(=O)CNC(=O)[C@H]([C@@H](C)O)NC(=O)[C@@H](NC(=O)[C@H](Cc2ccccc2)NC(=O)[C@H](CCCNC(=N)N)NC(=O)[C@@H](N)CCC(N)=O)C(C)(C)SSC[C@@H](C(=O)N[C@@H](CC(N)=O)C(=O)NCC(=O)N2CCC[C@H]2C(N)=O)NC(=O)[C@@H]2CCCN2C(=O)[C@H](Cc2ccc(N)cc2)NC1=O

Kd [5]: 0.15 µM
Kd [6]: 0.96 µM
IC50 [7]: 3 µM
B3: Peptide No. 296 (peptide)
peptide: QRF[Pen]HGHFGGLYPCNGP-NH2
modifications: disulfide 4-14; N-terminus assumed
SMILES: CC(C)C[C@@H]1NC(=O)CNC(=O)CNC(=O)[C@H](Cc2ccccc2)NC(=O)[C@H](Cc2c[nH]cn2)NC(=O)CNC(=O)[C@H](Cc2c[nH]cn2)NC(=O)[C@@H](NC(=O)[C@H](Cc2ccccc2)NC(=O)[C@H](CCCNC(=N)N)NC(=O)[C@@H](N)CCC(N)=O)C(C)(C)SSC[C@@H](C(=O)N[C@@H](CC(N)=O)C(=O)NCC(=O)N2CCC[C@H]2C(N)=O)NC(=O)[C@@H]2CCCN2C(=O)[C@H](Cc2ccc(O)cc2)NC1=O

Kd [8]: 0.19 µM
B4: Peptide No. 189 (peptide)
peptide: QRF[Pen]TGHF[dA][Sar]LYPCNGP-NH2
modifications: disulfide 4-14; N-terminus assumed
SMILES: CC(C)C[C@@H]1NC(=O)CN(C)C(=O)[C@@H](C)NC(=O)[C@H](Cc2ccccc2)NC(=O)[C@H](Cc2c[nH]cn2)NC(=O)CNC(=O)[C@H]([C@@H](C)O)NC(=O)[C@@H](NC(=O)[C@H](Cc2ccccc2)NC(=O)[C@H](CCCNC(=N)N)NC(=O)[C@@H](N)CCC(N)=O)C(C)(C)SSC[C@@H](C(=O)N[C@@H](CC(N)=O)C(=O)NCC(=O)N2CCC[C@H]2C(N)=O)NC(=O)[C@@H]2CCCN2C(=O)[C@H](Cc2ccc(O)cc2)NC1=O

Kd [9]: 24 µM
IC50 [3]: 26 µM
B5: Peptide No. 140 (peptide)
peptide: QRF[Pen]TGHFGGL[Phe(4-F)]PCNGP-NH2
modifications: disulfide 4-14; N-terminus assumed
SMILES: CC(C)C[C@@H]1NC(=O)CNC(=O)CNC(=O)[C@H](Cc2ccccc2)NC(=O)[C@H](Cc2c[nH]cn2)NC(=O)CNC(=O)[C@H]([C@@H](C)O)NC(=O)[C@@H](NC(=O)[C@H](Cc2ccccc2)NC(=O)[C@H](CCCNC(=N)N)NC(=O)[C@@H](N)CCC(N)=O)C(C)(C)SSC[C@@H](C(=O)N[C@@H](CC(N)=O)C(=O)NCC(=O)N2CCC[C@H]2C(N)=O)NC(=O)[C@@H]2CCCN2C(=O)[C@H](Cc2ccc(F)cc2)NC1=O

Kd [10]: 0.38 µM
Kd [11]: 2.5 µM
B6: Peptide No. 84 (peptide)
peptide: QRF[Pen]TGHFGGHYPCNGP-NH2
modifications: disulfide 4-14; N-terminus assumed
SMILES: C[C@@H](O)[C@@H]1NC(=O)[C@@H](NC(=O)[C@H](Cc2ccccc2)NC(=O)[C@H](CCCNC(=N)N)NC(=O)[C@@H](N)CCC(N)=O)C(C)(C)SSC[C@@H](C(=O)N[C@@H](CC(N)=O)C(=O)NCC(=O)N2CCC[C@H]2C(N)=O)NC(=O)[C@@H]2CCCN2C(=O)[C@H](Cc2ccc(O)cc2)NC(=O)[C@H](Cc2c[nH]cn2)NC(=O)CNC(=O)CNC(=O)[C@H](Cc2ccccc2)NC(=O)[C@H](Cc2c[nH]cn2)NC(=O)CNC1=O

Kd [12]: 72 µM
B7: Peptide No. 65 (peptide)
peptide: QRF[Pen]TGHFGGL[Phe(F5)]PCNGP-NH2
modifications: disulfide 4-14; N-terminus assumed
SMILES: CC(C)C[C@@H]1NC(=O)CNC(=O)CNC(=O)[C@H](Cc2ccccc2)NC(=O)[C@H](Cc2c[nH]cn2)NC(=O)CNC(=O)[C@H]([C@@H](C)O)NC(=O)[C@@H](NC(=O)[C@H](Cc2ccccc2)NC(=O)[C@H](CCCNC(=N)N)NC(=O)[C@@H](N)CCC(N)=O)C(C)(C)SSC[C@@H](C(=O)N[C@@H](CC(N)=O)C(=O)NCC(=O)N2CCC[C@H]2C(N)=O)NC(=O)[C@@H]2CCCN2C(=O)[C@H](Cc2c(F)c(F)c(F)c(F)c2F)NC1=O

Kd [13]: 180 µM
B8: Peptide No. 68 (peptide)
peptide: QRF[Pen]TGHFGGL[Phe(4-NO2)]PCNGP-NH2
modifications: disulfide 4-14; N-terminus assumed
SMILES: CC(C)C[C@@H]1NC(=O)CNC(=O)CNC(=O)[C@H](Cc2ccccc2)NC(=O)[C@H](Cc2c[nH]cn2)NC(=O)CNC(=O)[C@H]([C@@H](C)O)NC(=O)[C@@H](NC(=O)[C@H](Cc2ccccc2)NC(=O)[C@H](CCCNC(=N)N)NC(=O)[C@@H](N)CCC(N)=O)C(C)(C)SSC[C@@H](C(=O)N[C@@H](CC(N)=O)C(=O)NCC(=O)N2CCC[C@H]2C(N)=O)NC(=O)[C@@H]2CCCN2C(=O)[C@H](Cc2ccc([N+](=O)[O-])cc2)NC1=O

Kd [14]: 290 µM
B9: Peptide No. 87 (peptide)
peptide: QRF[Pen]TGHFGGL[Tyr(2-NO2)]PCNGP-NH2
modifications: disulfide 4-14; N-terminus assumed
SMILES: CC(C)C[C@@H]1NC(=O)CNC(=O)CNC(=O)[C@H](Cc2ccccc2)NC(=O)[C@H](Cc2c[nH]cn2)NC(=O)CNC(=O)[C@H]([C@@H](C)O)NC(=O)[C@@H](NC(=O)[C@H](Cc2ccccc2)NC(=O)[C@H](CCCNC(=N)N)NC(=O)[C@@H](N)CCC(N)=O)C(C)(C)SSC[C@@H](C(=O)N[C@@H](CC(N)=O)C(=O)NCC(=O)N2CCC[C@H]2C(N)=O)NC(=O)[C@@H]2CCCN2C(=O)[C@H](Cc2ccc(O)cc2[N+](=O)[O-])NC1=O

Kd [15]: 270 µM
Binder: QRF[Pen]TGH[Phe(4-NHAc)]GGLYPCNGP-NH2 (disulfide 4-14) [Peptide No. 94]

Reference: patent US20110059889A1 (SYNTONIX PHARMACEUTICALS, published 2011)
